The values below come from publication PMC5660060.

First the molecules themselves.
B1: fragment d 36 bp TetR motif (dsDNA)
DNA 1: AATTCATTGCATGATGACTTCATCGCGCGATGAATT
DNA 2: AATTCATCGCGCGATGAAGTCATCATGCAATGAATT

The first data set concerns the target T1, MSMEG_3765 (TetR3765) (Mycobacterium smegmatis mc2155) (UniProt A0QYS0).
T1 sequence: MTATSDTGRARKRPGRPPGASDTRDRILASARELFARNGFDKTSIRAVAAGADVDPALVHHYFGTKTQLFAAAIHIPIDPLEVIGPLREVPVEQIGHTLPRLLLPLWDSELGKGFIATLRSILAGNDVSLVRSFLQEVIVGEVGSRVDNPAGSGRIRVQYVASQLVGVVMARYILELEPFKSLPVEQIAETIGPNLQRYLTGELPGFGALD
As to the kind of experiment: EMSA. The conditions noted are these: 40 mM HEPES pH 8.0, 150 mM NaCl, 20 mM MgCl2, 10% glycerol, 37 C, 20 min; 8% native PAGE, SYBR Safe. A general note: A gel shift assay detects complexes by their altered migration in electrophoresis.
As to “CCGGATCCGACCTCGACCACCATCGCACGCACACCCCGTCCGGCAATAGTTGCGCCGAGCAGCCGATGCGCGGCCGCGACCGGGTCGATCGCCAGTTCCTCAGCGTTCATCAGAGACGATTGTGCACCGGCCCTTGACAAACCCGCACGACTGGCGGATATTCATCACATGATGATTTCATCAAGTGATGAATTACTTCGCGACGGTGGGGCCCG (double strand) [Rv1687c upstream fragment 200 bp]”, the binding entry is reported as “binds”.
In the case of “CGGGATCCGATCCTGCGGGGCGCCGACGACCACACGCTGTCGCTGATCACCGAGTACGTCGACGTCGCACGGTTGCGGGCCGACATTATCGGCCTGCTGGAGTCCGCCGCCTGAGCCAGGCGTCGCCGACGCCGAAATGTGTCGACGCATCGTCTTCCCACCGGACGACGGCAGGCCTAGAATTCATTGC (double strand) [fragment b 182 bp]”, the binding entry is given as “no binding”.
On the same count and under the same terms, next, “CGGGATCCGATCCTGCGGGGCGCCGACGACCACACGCTGTCGCTGATCACCGAGTACGTCGACGTCGCACGGTTGCGGGCCGACATTATCGGCCTGCTGGAGTCCGCCGCCTGAGCCAGGCGTCGCCGACGCCGAAATGTGTCGACGCATCGTCTTCCCACCGGACGACGGCAGGCCTAGAATTCATTGCATGATGACTTCATCGCGCGATGAATTGTCAGCGACGGGGCCCG (double strand) [MSMEG_3762 upstream fragment 218 bp]”: “binds”; “CGGGCCCGATCCACGCTGGCCATGGCATCGGTGGTCGGTTCGTCGCTCATGTCGTCAAGTTAGCTTGACGACATGAGCGGCGTCAAGAAAACTTGACACAAAAGGAACAGGCACAATCGCATCGATGAGCGTCGACCTGCTGACCGGTGATCCGATCGCCGCGGCACGTCGGCTGATCGGCGCCCACCTCGTCGGGCGGGACGTCACCGCCACGATCGTCGAGGTCGAGGCCTACGGCGGACCGCCGGACGGCCCGTGGCCGGACGCGGCGTCGCATTCGTTCCGGATCCCG (double strand) [MSMEG_3760 upstream fragment (from GFP assay) 277 bp]”: “no binding”.
Regarding “CTGCTGGAGTCCGCCGCCTGAGCCAGGCGTCGCCGACGCCGAAATGTGTCGACGCATCGTCTTCCCACCGGACGACGGCAGGCCTAGAATTCATTGC (double strand) [fragment c 97 bp]”, the binding entry was “no binding”.
For the molecule “CTGCTGGAGTCCGCCGCCTGAGCCAGGCGTCGCCGACGCCGAAATGTGTCGACGCATCGTCTTCCCACCGGACGACGGCAGGCCTAGAATTCATTGCATGATGACTTCATCGCGCGATGAATTGTCAGCGACGGGGCCCG (double strand) [fragment a 133 bp]”, the binding entry was “binds”.
On to “GACGCTCATCGATGCGATTGTGCCTGTTCCTTTTGTGTCAAGTTTTCTTGACGCCGCTCATGTCGTCAAGCTAACTTGACGACATGAGCGACGAACCGACCACCGATGCCATGGCCAGCGTGGATCGGGCCCG (double strand) [MSMEG_3760 upstream fragment 127 bp (negative control)]”, for which the binding result is listed as “no binding”.

In a further data set the target is T2, MSMEG_3765 (TetR3765) (Mycobacterium smegmatis mc2155, UniProt A0QYS0 1-211).
T2 sequence: T1 sequence
As to the kind of experiment: EMSA; 1.5-20 pmol protein; 40 mM HEPES pH 8.0, 150 mM NaCl, 20 mM MgCl2, 10% glycerol, 37 C, 20 min; 8% native PAGE, SYBR Safe. Particulars: protein: recombinant; tags: C-terminal His (pET-22b(+), NdeI-XhoI); chain copies: 2.
With B1, the binding result was “binds”.
